Experimental data as given in US20220306753A1 (JN BIOSCIENCES, published 2022).

What was measured:
[1] = molecular target: T1, Human IL-2R beta/CD122 Protein, Fc Tag (human, UniProt P14784 27-239); test: ELISA, plate coated with 1 µg/ml CD122 Fc tag protein, binder from 0.5 µg/ml in 2-fold dilutions, anti-human kappa-HRP
T1 construct: Bought protein coated on the ELISA plate; also called Cat. No. ILB-H5253, Acro Biosystems; not shown: Fc tag of the bought protein
T1 sequence (looked up): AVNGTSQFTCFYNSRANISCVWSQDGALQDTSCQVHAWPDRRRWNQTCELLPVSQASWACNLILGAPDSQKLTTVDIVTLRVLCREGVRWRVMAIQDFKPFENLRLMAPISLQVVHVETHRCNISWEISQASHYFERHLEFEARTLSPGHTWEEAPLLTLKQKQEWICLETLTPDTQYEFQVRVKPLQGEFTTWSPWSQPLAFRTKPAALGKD
Description: (§1) Binding of HuABC2-CTLA4 and HuABC2-CTLA4YE to human CD122, CD80 and CD86 was analyzed by ELISA. Wells of an ELISA plate were coated with 1 μg/ml of either CD122 (Human IL-2R beta/CD122 Protein, Fc Tag; Cat. No. ILB-H5253, Acro Biosystems, Newark, Del.), CD80 (Human B7-1/CD80 Protein, Mouse IgG2a Tag; Cat. No. B71-H52A4, Acro Biosystems) or CD86 (Human B7-2/CD86 Protein, Fc Tag; Cat. No. CD6-H5257, Acro Biosystems) in PBS. After blocking with Blocking Buffer and washing the wells with Wash Buffer, transiently expressed HuABC2-CTLA4 and HuABC2-CTLA4YE at 0.5 μg/ml and serial 2-fold dilutions in ELISA Buffer were applied to the wells in duplicates. Purified HuABC2 at 0.5 μg/mland serial 2-fold dilutions was used as a control. After incubation for 1 hr at room temperature and washing with Wash Buffer, bound antibodies were detected using HRP-conjugated goat anti-human kappa chain polyclonal antibody. After incubation for 30 min and washing with Wash Buffer, color development was initiated by adding ABTS substrate and stopped with 2% oxalic acid. Absorbance was read at 405 nm.

[2] = molecular target: T2, Human B7-1/CD80 Protein, Mouse IgG2a Tag (human, UniProt P33681 35-242); test: ELISA, plate coated with 1 µg/ml CD80 mouse IgG2a tag protein, anti-human kappa-HRP detection
T2 construct: Bought protein coated on the ELISA plate; also called Cat. No. B71-H52A4, Acro Biosystems; not shown: mouse IgG2a tag of the bought protein
T2 sequence (looked up): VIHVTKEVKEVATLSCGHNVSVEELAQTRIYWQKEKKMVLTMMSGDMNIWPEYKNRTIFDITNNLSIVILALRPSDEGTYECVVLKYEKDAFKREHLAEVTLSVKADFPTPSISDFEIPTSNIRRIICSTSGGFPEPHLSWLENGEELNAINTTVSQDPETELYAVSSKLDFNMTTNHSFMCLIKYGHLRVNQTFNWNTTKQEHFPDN
Description: as §1

[3] = molecular target: T3, Human B7-2/CD86 Protein, Fc Tag (human, UniProt P42081 24-247); test: ELISA, plate coated with 1 µg/ml CD86 Fc tag protein, anti-human kappa-HRP detection
T3 construct: Bought protein coated on the ELISA plate; also called Cat. No. CD6-H5257, Acro Biosystems; not shown: Fc tag of the bought protein
T3 sequence (looked up): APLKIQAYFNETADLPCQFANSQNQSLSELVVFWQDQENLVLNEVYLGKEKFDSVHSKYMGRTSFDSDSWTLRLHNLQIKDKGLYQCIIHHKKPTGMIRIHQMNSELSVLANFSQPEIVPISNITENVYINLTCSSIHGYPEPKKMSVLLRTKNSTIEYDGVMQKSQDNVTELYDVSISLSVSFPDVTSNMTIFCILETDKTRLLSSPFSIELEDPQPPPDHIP
Description: as §1

B1: HuABC2 (antibody, human IgG1, kappa, V domains shown)
VH: EVQLVESGGGLVQPGGSLRLSCAASGFTFSDFYMEWVRQAPGKGLEWIAASRNKANDYTTEYSASVKGRFIVSRDDSKNSLYLQMNSLKTEDTAVYYCARSYYRYDGMDYWGQGTTVTVSS
VL: EIVLTQSPATLSLSPGERATLSCSAISSVSYMYWYQQKPGQAPRLLIYDTSNLVSGVPARFSGSGSGTDYTLTISSLEPEDFAVYYCQQWNTYPYTFGGGTKVEIKR
notes: Human IgG1/kappa, wild-type Fc, expressed from pHuABC2p in CHO-K1 and purified on protein A; also called humanized anti-CD122 IgG1/kappa monoclonal antibody
Does B1 bind [1]?
Result: binds

Does B1 bind [2]?
Result: no binding (tested: 0.5 µg/ml and serial 2-fold dilutions)

Does B1 bind [3]?
Result: no binding (tested: 0.5 µg/ml and serial 2-fold dilutions)
